The first data set has as its target CsrA-H6 (Salmonella Typhimurium / Escherichia coli (sequences stated identical)) (UniProt P69913). As to the kind of experiment: EMSA. The following applies: RNA EMSA: 10 mM Tris-HCl pH 7.5, 10 mM MgCl2, 100 mM KCl, 200 ng/uL yeast RNA, 0.2 mg/mL BSA, 7.5% glycerol, 20 mM DTT, 37 C 30 min; DNA EMSA: 10 mM Tris pH …. For orientation: A gel shift assay detects complexes by their altered migration in electrophoresis.
CsrA-H6 (Salmonella Typhimurium / Escherichia coli (sequences stated identical)) (UniProt P69913), sequence (P69913 whole entry): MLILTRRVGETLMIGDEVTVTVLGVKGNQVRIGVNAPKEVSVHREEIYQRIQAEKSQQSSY
In turn, “GGGACAAAAAAUUGCCACGAUGACGGCAGUUUCAGUGGAGACGGUGAGCAAUGAAUAAAGAACGCAUUAUUCAGGAAUUUGUGCCGGGCAAACAGGUC [eutS RNA (-47 to +48)]” yielded a Kd of 5.7 nM. Substance “GGGACUUUUUAUCAGGGCCAGGAUAAUGGUAAUAAAAAGUGAAUGUAAAUAAUGUGUUUUGUUUAUAACAAUAAAUUAACUGAGGGGUUUUAUCAUG [pocR RNA (-91 to +3)]” registered a Kd of 7.4 nM. Still for that read-out and setting: in the case of “GGGUUCUUAUAGUCCCAACUAUCGGAACACUCCAUGCGAGGUCUUUAUGCAACAAGAAGCACUAGGAAUGGUAGAAACCAAAGG [pduA RNA (-44 to +38)]” it was 31 nM.

The test system of a further data set is CsrA-H6 (Salmonella Typhimurium / Escherichia coli (sequences stated identical)). Nature of the data set: EMSA. The following applies: 10 mM MgCl2; yeast RNA 200 ng/uL; apparent Kd; RNA EMSA: 10 mM Tris-HCl pH 7.5, 10 mM MgCl2, 100 mM KCl, 200 ng/uL yeast RNA, 0.2 mg/mL BSA, 7.5% glycerol, 20 mM DTT, 37 C 30 min; DNA EMSA: 10 mM Tris pH ….
For the substance eutS RNA (-47 to +48), the Kd is 5.7 nM.

In the case of pduA RNA (-44 to +38), the Kd is 31 nM.

For pocR RNA (-91 to +3), the Kd amounted to 7.4 nM.

(Values after publication PMC10433801.)
